From paper PMC10350043 come the findings set out here.

What all share (assay): FRET or BRET
A general note: In BRET a luciferase serves as donor, and the signal depends on an acceptor being close.

The target in assay [1] is RyR2 in cardiac SR membranes decorated with D-49-FKBP (porcine (endogenous in porcine heart) | human).
Assay [2] deals with RyR2 in cardiac SR membranes decorated with D-32-FKBP (porcine (endogenous in porcine heart) | human).
Assay [3] addresses RyR2 in cardiac SR membranes decorated with D-85-FKBP (porcine (endogenous in porcine heart) | human).

Where no end group is shown, it is not given here. QXL520 = dark acceptor

B1: acceptor-labeled DPc10 (QXL520 at the N-terminus) (peptide)
peptide: QXL520-GFCPDHKAAMVLFLDRVYGIEVQDFLLHLLEVGFLP
As usually defined, the Kd is the concentration at which binding is half-saturated. A high value points to a looser complex. Consider B1, for which the Kd in assay [1] was determined as 9.9 µM; in assay [2], 13.1 µM; in assay [3], 10.4 µM.
